Positions count from the first letter of the chain named. Where two headings read alike, the source gives them in different places.
Assays:
Assay in all cases: ITC
[1] = biological target: T1, Dcr1 C-terminal extended dsRBD (Schizosaccharomyces pombe, UniProt Q09884 1258-1358)
T1 sequence: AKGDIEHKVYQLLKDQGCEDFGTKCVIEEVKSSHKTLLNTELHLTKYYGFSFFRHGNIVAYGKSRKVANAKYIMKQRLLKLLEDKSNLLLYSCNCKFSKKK

[2] = biological target: T2, Dcr1 dsRBD K1265A (helix 1) (Schizosaccharomyces pombe, UniProt Q09884 1258-1358, K1265A)
T2 sequence: T1 sequence with K8A

[3] = biological target: T3, Dcr1 dsRBD R1322A (loop 4) (Schizosaccharomyces pombe, UniProt Q09884 1258-1358, R1322A)
T3 sequence: T1 sequence with R65A

[4] = biological target: T1, Dcr1 C-terminal extended dsRBD; remark: listed apart in the source

B1: dsDNA 24 bp (DNAfwd/DNArev) (dsDNA)
DNA 1: GGGATCAATATGCTAAGCGATCCC
DNA 2: GGGATCGCTTAGCATATTGATCCC
- Kd [1]: 1.5 µM
- binding result [2]: no binding
- binding result [3]: no binding

B2: dsRNA 24 bp (RNAfwd/RNArev) (dsRNA)
RNA 1: GGGAUCAAUAUGCUAAGCGAUCCC
RNA 2: GGGAUCGCUUAGCAUAUUGAUCCC
- Kd [4]: 0.8 µM
- binding result [2]: no binding
- binding result [3]: no binding
